Results from patent publication US20230117831.

How the values were obtained:
BRD4 peptide S358 = molecular target: T1, BRD4 peptide S358
T1 chain: EQLKCCSGILKEMRR

BRD4 peptide S325 = molecular target: T2, BRD4 peptide S325
T2 chain: GQRRESSRPVKPPRR

[1] = molecular target: BRD4-GST (BD1 and BD2 (49-460)) (BPS Bioscience 31044), O60885
BRD4 peptide T169 = molecular target: T3, BRD4 peptide T169
T3 chain: ELPTEETEIMIVQRR

BRD4 peptide S338 = molecular target: T4, BRD4 peptide S338
T4 chain: KKDVPDSQQHPAPRR

B1: AMPK α1β1γ1-His tag (SignalChem P47-10H) (protein)
chain 1: MRRLSSWRKMATAEKQKHDGRVKIGHYILGDTLGVGTFGKVKVGKHELTGHKVAVKILNRQKIRSLDVVGKIRREIQNLKLFRHPHIIKLYQVISTPSDIFMVMEYVSGGELFDYICKNGRLDEKESRRLFQQILSGVDYCHRHMVVHRDLKPENVLLDAHMNAKIADFGLSNMMSDGEFLRTSCGSPNYAAPEVISGRLYAGPEVDIWSSGVILYALLCGTLPFDDDHVPTLFKKICDGIFYTPQYLNPSVISLLKHMLQVDPMKRATIKDIREHEWFKQDLPKYLFPEDPSYSSTMIDDEALKEVCEKFECSEEEVLSCLYNRNHQDPLAVAYHLIIDNRRIMNEAKDFYLATSPPDSFLDDHHLTRPHPERVPFLVAETPRARHTLDELNPQKSKHQGVRKAKWHLGIRSQSRPNDIMAEVCRAIKQLDYEWKVVNPYYLRVRRKNPVTSTYSKMSLQLYQVDSRTYLLDFRSIDDEITEAKSGTATPQRSGSVSNYRSCQRSDSDAEAQGKSSEVSLTSSVTSLDSSPVDLTPRPGSHTIEFFEMCANLIKILAQ
chain 2: MGNTSSERAALERHGGHKTPRRDSSGGTKDGDRPKILMDSPEDADLFHSEEIKAPEKEEFLAWQHDLEVNDKAPAQARPTVFRWTGGGKEVYLSGSFNNWSKLPLTRSHNNFVAILDLPEGEHQYKFFVDGQWTHDPSEPIVTSQLGTVNNIIQVKKTDFEVFDALMVDSQKCSDVSELSSSPPGPYHQEPYVCKPEERFRAPPILPPHLLQVILNKDTGISCDPALLPEPNHVMLNHLYALSIKDGVMVLSATHRYKKKYVTTLLYKPI
chain 3: METVISSDSSPAVENEHPQETPESNNSVYTSFMKSHRCYDLIPTSSKLVVFDTSLQVKKAFFALVTNGVRAAPLWDSKKQSFVGMLTITDFINILHRYYKSALVQIYELEEHKIETWREVYLQDSFKPLVCISPNASLFDAVSSLIRNKIHRLPVIDPESGNTLYILTHKRILKFLKLFITEFPKPEFMSKSLEELQIGTYANIAMVRTTTPVYVALGIFVQHRVSALPVVDEKGRVVDIYSKFDVINLAAEKTYNNLDVSVTKALQHRSHYFEGVLKCYLHETLETIINRLVEAEVHRLVVVDENDVVKGIVSLSDILQALVLTGGEKKP
ADP-Glo assay, phosphorylation of the peptide by AMPK compared with the SAMS peptide (BRD4 peptide S358): these peptides showed a 250-fold lower preference for phosphorylation than AMPK's natural ACC substrate-SAMS peptide | ADP-Glo assay, phosphorylation of the peptide by AMPK compared with the SAMS peptide (BRD4 peptide S325): these peptides showed a 250-fold lower preference for phosphorylation than AMPK's natural ACC substrate-SAMS peptide | BRD4 phosphorylation, western blot with phospho-AMPK substrate motif antibody [1]: Applicants observed BRD4 phosphorylation only when PHICS, BRD4, and kinase were present | ADP-Glo assay, phosphorylation of the peptide by AMPK compared with the SAMS peptide (BRD4 peptide T169): these peptides showed a 250-fold lower preference for phosphorylation than AMPK's natural ACC substrate-SAMS peptide | ADP-Glo assay, phosphorylation of the peptide by AMPK compared with the SAMS peptide (BRD4 peptide S338): these peptides showed a 250-fold lower preference for phosphorylation than AMPK's natural ACC substrate-SAMS peptide
